The target of test [1] is T1, recombinant hCD16a/FcγRIIIa (human, UniProt P08637 17-208).
T1 construct: Bought recombinant protein, immobilized on plastic at 2 µg/ml
Briefly: ELISA, recombinant FcγR immobilized at 2 µg/ml, detection with peroxidase-labeled anti-human IgG. Background: ELISA stands for enzyme-linked immunosorbent assay.

The target of test [2] is T2, recombinant hCD32a/FcγRIIa (human, UniProt P12318 36-218).
T2 construct: Bought recombinant protein, immobilized on plastic at 2 µg/ml
T2 sequence (looked up): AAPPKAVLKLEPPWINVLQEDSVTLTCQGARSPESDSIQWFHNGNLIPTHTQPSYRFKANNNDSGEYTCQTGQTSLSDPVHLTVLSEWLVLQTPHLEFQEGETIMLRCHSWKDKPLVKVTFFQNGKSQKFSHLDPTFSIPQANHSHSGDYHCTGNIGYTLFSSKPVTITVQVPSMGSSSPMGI
The test is described as above.

A further test deals with T3, recombinant hCD64/FcγRI (human, UniProt P12314 16-288).
T3 construct: Bought recombinant protein, immobilized on plastic at 2 µg/ml
T3 sequence (P12314 16-288 limits assumed): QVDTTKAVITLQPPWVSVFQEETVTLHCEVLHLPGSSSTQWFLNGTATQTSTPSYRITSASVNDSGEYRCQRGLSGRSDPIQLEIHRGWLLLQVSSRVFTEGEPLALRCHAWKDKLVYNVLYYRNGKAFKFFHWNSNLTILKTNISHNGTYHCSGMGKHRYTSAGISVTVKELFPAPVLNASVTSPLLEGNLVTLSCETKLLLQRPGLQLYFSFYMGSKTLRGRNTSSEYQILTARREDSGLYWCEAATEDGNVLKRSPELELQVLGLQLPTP
The description is as above.

Test [3] deals with T4, human CD127 (Interleukin-7 receptor subunit alpha) (human, UniProt P16871 21-459).
T4 construct: Endogenous CD127 on human ALL cell lines (HPB-ALL, DND41, 697, NALM6, REH) and on patient cells; no signal peptide limits are stated; also called IL7R-a; IL-7R
T4 sequence: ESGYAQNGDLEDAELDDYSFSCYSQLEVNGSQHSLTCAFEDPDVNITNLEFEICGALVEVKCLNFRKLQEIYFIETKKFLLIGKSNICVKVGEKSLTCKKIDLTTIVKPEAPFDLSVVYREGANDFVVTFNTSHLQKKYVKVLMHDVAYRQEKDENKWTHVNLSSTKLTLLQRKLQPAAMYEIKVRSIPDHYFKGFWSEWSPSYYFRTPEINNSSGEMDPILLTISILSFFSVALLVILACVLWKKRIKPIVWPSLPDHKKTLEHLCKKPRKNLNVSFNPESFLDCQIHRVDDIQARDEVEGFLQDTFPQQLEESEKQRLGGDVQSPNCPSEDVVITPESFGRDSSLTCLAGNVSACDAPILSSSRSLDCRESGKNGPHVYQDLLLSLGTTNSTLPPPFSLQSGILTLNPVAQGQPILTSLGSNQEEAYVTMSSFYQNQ
Briefly: flow cytometry on ALL cell lines, 10 ug/mL antibody, fold change of PE geometric mean against isotype control. (In general: Flow cytometry measures light scatter and fluorescence of single cells or particles in a stream.)

Data on one molecule can be found in patent publication US20230227565A1 (OSE IMMUNOTHERAPEUTICS, published 2023).

T1 sequence (P08637 17-208 limits assumed): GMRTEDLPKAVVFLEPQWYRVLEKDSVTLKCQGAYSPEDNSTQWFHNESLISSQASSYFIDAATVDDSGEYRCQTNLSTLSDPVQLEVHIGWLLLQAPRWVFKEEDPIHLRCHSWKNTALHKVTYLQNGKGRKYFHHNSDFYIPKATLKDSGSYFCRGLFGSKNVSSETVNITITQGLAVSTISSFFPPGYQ

B1: N13B2-hVL6 (antibody, human IgG4 S228P, kappa)
heavy: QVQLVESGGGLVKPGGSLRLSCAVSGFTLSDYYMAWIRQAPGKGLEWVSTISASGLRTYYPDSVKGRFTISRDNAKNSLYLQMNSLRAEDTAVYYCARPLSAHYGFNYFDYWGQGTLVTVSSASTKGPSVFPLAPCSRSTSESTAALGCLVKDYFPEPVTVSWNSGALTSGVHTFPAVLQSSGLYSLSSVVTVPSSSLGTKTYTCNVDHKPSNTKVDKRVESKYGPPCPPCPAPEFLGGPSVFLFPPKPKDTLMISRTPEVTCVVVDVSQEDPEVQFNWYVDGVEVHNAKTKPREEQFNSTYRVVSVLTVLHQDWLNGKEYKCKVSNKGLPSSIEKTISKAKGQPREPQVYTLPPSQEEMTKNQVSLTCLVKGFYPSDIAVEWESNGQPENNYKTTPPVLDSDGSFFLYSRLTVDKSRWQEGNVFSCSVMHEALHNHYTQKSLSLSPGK
light: DIQMTQSPSSLSASVGDRVTITCRTSEDIYQGLAWYQQKPGKAPKLLLYSANTLHIGVPSRFSGSGSGTDYTLTISSLQPEDFATYYCQQYYDYPLAFGGGTKVEIKRTVAAPSVFIFPPSDEQLKSGTASVVCLLNNFYPREAKVQWKVDNALQSGNSQESVTEQDSKDSTYSLSSTLTLSKADYEKHKVYACEVTHQGLSSPVTKSFNRGEC
notes: Humanized antagonist anti-CD127 IgG4 antibody; also called NB13B2-hVL6; N13B6-hVL6; copies: 2 + 2
B1: the binding result in test [1] is “no binding”; in test [2], “no binding”; with recombinant hCD64/FcγRI, “no binding”; in test [3], “binds”.
